Results reported in article PMC5839545 (2018).

Molecular target: CENP-T (Homo sapiens, UniProt Q96BT3)
Assay: SW-FCCS

Chain of CENP-T (Q96BT3 whole entry): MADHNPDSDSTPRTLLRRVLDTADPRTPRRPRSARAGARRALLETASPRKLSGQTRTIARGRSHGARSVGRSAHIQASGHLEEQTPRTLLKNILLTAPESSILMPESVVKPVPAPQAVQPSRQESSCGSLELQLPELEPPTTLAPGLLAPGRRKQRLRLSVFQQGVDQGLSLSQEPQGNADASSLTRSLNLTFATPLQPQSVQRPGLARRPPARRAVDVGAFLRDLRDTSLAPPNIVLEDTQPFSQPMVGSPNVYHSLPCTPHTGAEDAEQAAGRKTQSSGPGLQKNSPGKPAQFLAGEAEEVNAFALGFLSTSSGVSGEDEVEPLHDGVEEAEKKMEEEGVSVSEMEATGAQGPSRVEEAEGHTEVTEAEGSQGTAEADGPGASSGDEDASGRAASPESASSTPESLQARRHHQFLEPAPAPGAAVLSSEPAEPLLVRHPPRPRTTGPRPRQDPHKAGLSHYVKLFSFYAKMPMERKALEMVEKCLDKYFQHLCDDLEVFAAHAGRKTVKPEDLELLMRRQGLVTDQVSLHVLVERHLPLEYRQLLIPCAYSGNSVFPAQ

B1: Spc24 (protein)
chain: MAAFRDIEEVSQGLLSLLGANRAEAQQRRLLGRHEQVVERLLETQDGAEKQLREILTMEKEVAQSLLNAKEQVHQGGVELQQLEAGLQEAGEEDTRLKASLLQLTRELEELKEIEADLERQEKEVDEDTTVTIPSAVYVAQLYHQVSKIEWDYECEPGMVKGIHHGPSVAQPIHLDSTQLSRKFISDYLWSLVDTEW
Kd: 1800 nM
